# Reference: the DeepSol protein solubility set
# Assay: soluble on expression in E. coli; label from the status in PepcDB or PDB records
row,Sequence,soluble on expression in E. coli
1,MLWNVDLLKTLNIMYNKILFMNNSFFGRFKKNDNQVIEEQPPVWEDRIFWVETLQKIAFPVLNNLKKESLKKNMSIESFSSESNKFAHLGAFSNVFNGIAPWLELGPDESEEGKIREKYIVLTLKAISNAVNPNSKDYILFTEPKQSLMSMALFAQGLLRSKTQIWNNLPMDVQARVIYELKNTRIIAPFENHWLLFTSMIEATLLEFTGECDRERLTYSIRKFRDEWYLGDAIYADGPEFDVNYYNSIFIHPMLNDILKVMRKYGINEGELLDVQLMRSSRYASQLERIISPEGTYPLLGKSMAYRTGIFHLLAQAALFKILPRNMETSQVRSALTKVLRTQFGGHQNFDNKGWLTIGLNGCQAEIAEKDINTGSLYGCCAIFLPLGLSFNDSFWVGPFEEWTTLKAWNGNPVEPDQSIDFLEHHHHHH,not soluble
2,MLYSSNAILLTVICYELPLSERIRMLLRLEDLFDKIDFFSARDTSFEHHAVLVALFEILDVTSRSDLKSDLLQELDKQRTMLEGLRSNPEVSEKALDHILQDIRAAFRGLLDIPGRIGGHLRDDEWLMSVKQRMSIPGAACEFDLPAYHYWLNLAPEIRREDLKDWITPFTPIRSGINIVLNMLRNSGKNCCYTAVQGLFQQAGSEHQAHLLRLHISSEFPCVPEISANKYALNIRFVPWRSDHKTEVYEEDIPFELTFCSL,not soluble
3,MMAFAPPKNTDGPKMQTKMSTWTPLNHQLLNDRVFEERRALLGKWFDKWTDSQRRRILTGLLERCSLSQQKFCCRKLQEKIPAEALDFTTKLPRVLSLYIFSFLDPRSLCRCAQVCWHWKNLAELDQLWMLKCLRFNWYINFSPTPFEQGIWKKHYIQMVKELHITKPKTPPKDGFVIADVQLVTSNSPEEKQSPLSAFRSSSSLRKKNNSGEKALPPWRSSDKHPTDIIRFNYLDNRDPMETVQQGRRKRNQMTPDFSRQSHDKKNKLQDRTRLRKAQSMMSRRNPFPLCP,not soluble
4,MMCGGRGTRLDAAAEKPLFEVGGRAMVDHVRAALEAAGRIDTTHAAVSPHAPDTAAHLAATPLSLIETPGDGYVADLTAALDAVGTPVLTVAADLPLLAPAVVDTVVAAADGATTSACVPRALKHELGVSTDADADAWVPTGVNVVGGGDTEATHRSFDARLAVNVNHRSDAAVAARLLAATDRRNHPRLEHHHHHH,not soluble
5,MMDLHTHTVYSDGIGLIRDNVAWAEKRGLKIVGISDHIHFFTPSRFSAYINEINVIKEESEIVVLAGIEANILENGPDITDEFRKKLDYAIASVHEWFGRNGTHEYINYVKKAIMDDNVDIIGHFGNSFPWIGYPTREEIDEILDLAEAYGKAFEISARYKVPDLEFIRECVKRGIKLSLATDAHRPEDVGKVSWSLKMLEKAGGTKEDLIFSEYL,soluble
6,MMEEYVVIGKVLDTFGLEGELKVRPYAPPEVFENLEKVYLKRKGGDWVPFEVEWVDFIDDKVIIKFKGYDSIDEVEQFKGAKLFLPKEELPELGEEEYYAYELVGMEVETDKGKKLGKVERVQDMGPYDALVLDKENLLVPFVSDIVLKVDKENKKIIVKEELLPVLEHHHHHH,soluble
7,MMGRGKLILIEGLDRTGKTTQCNILYKKLQPNCKLLKFPERSTRIGGLINEYLTDDSFQLSDQAIHLLFSANRWEIVDKIKKDLLEGKNIVMDRYVYSGVAYSAAKGTNGMDLDWCLQPDVGLLKPDLTLFLSTQDVDNNAEKSGFGDERYETVKFQEKVKQTFMKLLDKEIRKGDESITIVDVTNKGIQEVEALIWQIVEPVLSTHIDHDKFSFF,soluble
8,MMGSAYWEKLVPQINPPKVPSAVEGLGIPASVVENLVLKHLAAYPKCDLVELTQRLCVVSNIVELALAQLRKRSWVEVYQPASDKLSHSYSNVRYSLTEFGLAEADIAYRKDPYIGPVPVSLEDYWTVVEGQDLRKNPIMRADVERALSDVFGSEHLIPVLGPAINSGRAMLLYGHAGTGKSYVAAR,not soluble
9,MMITSVEKDTKNRGMLSVFIDEKYAFSIPEEDYFRLCLYDKKELSSDEIEEIKKGVSQRTAKYKAVKYLSYRYMTEAELSQKLRKDGYDEDVILNVVTELKSMGYINDLIYAQKYVYDRIKLKPKAKKMLKRELNQKGVSDEIADQVLSELDFDEDVVIERLIRKKFGKYDMKDPKIQKRIYSFLLHRGFDFENIKRVLRTITHLD,soluble
10,MMKGSRRTGNNTATTLNTPVVIHATQLPQHVSTDEVLQFLESFIDEKENIIDIDTNLSSSISQLKRIQRDFKGLPPAQDFSAAPIQV,soluble
11,MMKKMMVLYNETSGSSESKEIAERFKKAAEARGEAVILQPSNPDIDPEEMRKNAKENQVGVLVVIGGDGTIHHAVQNFKDTIRDYQIGIIPGGTVNNFARVLSIPLKEEDAFETILAGQTTPVDFGMVNQDVMISTLTIGLLADTAANVTQQEKQKYGPLAFTKQFFRLLMKKKKYKLKIDGDERRWHGKAQLLTMTMTNSAGGFTNFDANATPDDGEVHIIILPKLVFYKFVYYLPKIIRGQLNEIPGVVYFSGSQFKISGEKDKKVQTRTDGDPTDDLPIKVTVEAGGLNVFVPETSTSTKE,not soluble
12,MMKQALRVAFGFLILWASVLHAEVRIVIDSGVDSGRPIGVVPFQWAGPGAAPEDIGGIVAADLRNSGKFNPLDRARLPQQPGSAQEVQPAAWSALGIDAVVVGQVTPNPDGSYNVAYQLVDTGGAPGTVLAQNSYKVNKQWLRYAGHTASDEVFEKLTGIKGAFRTRIAYVVQTNGGQFPYELRVSDYDGYNQFVVHRSPQPLMSPAWSPDGSKLAYVTFESGRSALVIQTLANGAVRQVASFPRHNGAPAFSPDGSKLAFALSKTGSLNLYVMDLASGQIRQVTDGRSNNTEPTWFPDSQNLAFTSDQAGRPQVYKVNINGGAPQRITWEGSQNQDADVSSDGKFMVMVSSNGGQQHIAKQDLATGGVQVLSSTFLDETPSLAPNGTMVIYSSSQGMGSVLNLVSTDGRFKARLPATDGQVKFPAWSPYLLEHHHHHH,soluble
13,MMLAISEIRKHPDGLSFDRLCDVKSMLLERDQQIIDIKAVKAVGNVRYDKGLYLLDYQLSYEVILPSSRSMVPVCLSEVQHIQELFIEATDLADKKELVEDNLVLVLDKDAINLEESIVDNILLAIPVQVLTEEEKKSKELPAGQNWAVLTEEDYQCLKEEKQKENNPFASLQGLFDE,not soluble
14,MMMGEVQSLPSCGLHPRLLDALTLALAARPQEKAPGRYELQGDNVFMNVMQLTTQMPAEKKAELHEQYIDIQLLLTGVERIAFGMSGAARQCEEMHVEEDYQLCSQIVDEQTITLQAGMFAVFMPGEPHKPGCAVGEPDDIKKVVVKVRASLLAA,not soluble
15,MMPPLTKIEVLAKRVMEGAQLKTHKYFRIAVPHAITGQQLIALVLERGAPDDEAEASHLASLLLHHGYMFPVIEHGQPFKDDGTLYRLQRPYFWPSQAELVPDVEYAIYLNKRLLRNEQKHGLEEDEVESFNRLADVLAHMWAFIVQQSELQLKQQKEKKKVDKVVFDSEERAFWKIRKPSRGGPNFLEDPYMKIEKKIRRQNAQGYRCLMDRLRFAIKTKPWLKALKASDTMVTWVDQRAEFDPFLHPPQPSNPWISDEASFWNQPTDTSSAEIPTEKRVKRWGLSVQELVKDPIGRQVLETFLESEFSSENIRFWIAIQDLKYAPNEQIYQKAERIREEFLAQGAPAQVNVDNRTLDQTLECISKAKDASQMRFAFYHSEEHVFTLMAKDSYPRFVRSQIYKAVLTAAQQHGTKRLGWRNFVFNMGTTKKPATSKPAKPQDSIGTGQVLPKQLSSDSLPVRQAHGVKPDPE,not soluble
16,MMPRMGPPAAARQDNPLHVSFRNPQWPPNFINKDNVLDYFCNQANAFYEMNSCNQQIRMQNIVNRTVEECLRTMPGIQYVLWYSQPPLFIICKQRRNNVTNVSPIAYYYVINGSVHQAPDMYSLVQSRLLGALEPLRNAFGEVTNYSRYNTAKGYYWEFKNKPNVKKREEEKKEDEEEKLEDRSTNFQKTRTMMLLNQLFSEMPAEDALEREEKEEVEEEEEETLKTEEPTTSTDEPKFAEPTARTTSKQ,not soluble
17,MMQYMLLFSRQGKLRLQKWYTAYPDKQKKKICRELITQILARKPKMCAFLEYKDLKVVYKRYASLYFCCAIEQNDNELITLEVIHRYVELLDKYFGSVCELDIIFNFEKAYFILDEFLLAGEIQETSKKQVLKAIAAQDLIQEEETPQGFFEDHGLG,not soluble
18,MMRGGMGNMQKMLKQMQKMQKEMQKAQEELAEKTVEGTAGGGMVTVVANGHKQILEVKIKEEVVDPDDIEMLQDLILAATNDALKKADELANEMMGQFTKGLNIPGLF,not soluble
19,MMRSLLSHPQPSHAIRSPAAACALALFLSGCQSLGTDGLTASNAPAEISGPAASAIAGDMVGRLAEQIGPGTATVSLKQDNSPFGQALEAALKGWGYAVVTDQKTDGVSRIVPLAYVVIPFEGQVLTRLSTNSIELGRAYIVTTSGAQPASALAVMKRGLEHHHHHH,not soluble
20,MMSIFSVQTGSLVGTVHRYVKQPRQSWAYPIKQKSQTGTDNTKSALTLEKFTKPLTRKFSHDTICRKAPFVGVELQKPSATLTIMGKVHRQRQE,not soluble
21,MMSMIEKLKKFTQIPGISGYEERIREEIIREIKDFADYKVDAIGNLIVELGEGEERILFMAHMDEIGLLITGITDEGKLRFRKVGGIDDRLLYGRHVNVVTEKGILDGVIGATPPHLSLERDKSVIPWYDLVIDIGAESKEEALELVKPLDFAVFKKHFSVLNGKYVSTRGLDDRFGVVALIEAIKDLVDHELEGKVIFAFTVQEEVGLKGAKFLANHYYPQYAFAIDSFACCSPLTGDVKLGKGPVIRAVDNSAIYSRDLARKVWSIAEKNGIEIQIGVTGGGTDASAFQDRSKTLALSVPIKYLHSEVETLHLNDLEKLVKLIEALAFEL,soluble
22,MMSSNQQPVVLGKLGSCHGIKGWLKITAYTDSVEGIFDYSPWLIKENGEWREVKVIQWRYQGKAVVAELEGVTTRERAQMLTNCEIGILPQQMNALPEDEFYWRDLIGCEVINTTGYNMGIVDQIVETGSNDVLLVKANAKDSFGKVERMVPFVPGQFILKVDVQGKQILVDWDPDFLEHHHHHH,soluble
23,MMTMWVFGYGSLMWNPGFPVARRELATLSGWSRSFCMSSIHHRGTEEKPGLVLALDAVHNARCRGIAFAVEPGHEARTLDELRERELISSAYLERELEIDLDIGERVCAVTYVIDPHHEQYCGGMPLERQAQIIATAIGGRGPNTEYLYNTAAHLAEIGLGDPDLDWLSARVREITSLEHHHHHH,soluble
24,MNAHDEVQRTLNPTCTGTSVIALQYKTGVVVLTDRVVSYGKMARYKNVSRQYKVNDNVLIAFGGDHADFHWLQNVIERQVLLWKRFDQDIGPKALHGYLTSLLYAKRCKMNPVWNTLVVAGVEEEEKNNKETSTPFIGVITQKGCAYQVKHIATGLGAFLLNQAVEDEWRKKGEDLSREEAEAVLRKSLELTLYHDCVADNEFEIGRVDATEGVVLGKEEKIIGDWSIAETNCQYE,not soluble
25,MNAPLRFGPYAVSRFVDGVYKAPVGHLIHRQGAVALAAVVAGLEGETVDMDVNCFALSGPDGVWLIDAGCGTAWGAAYGHARAAMLAAGIQPDDVSRVILTHIHGDHALGLIDGDRPYFPNAEIWVPEADLAFFTNADARKTLPPARQGGFDLAARLLDICGAMLRPIPTGTVAEDIEAIAMPGHTPGHMGYLIGSGDARLLLWGDVLHVGELQAADPEIAFVYDIDSELAYATRLAALAEAADHGWLVSGGHLGGFFHIERRGDSFRFVPQPG,not soluble
26,MNASSRTKPAIDLNKVPPIDHHRTAVTFNCLIMKMTEMLNNFGNKMEDILEKAEQSLDTADRKLRLMESKLAGMSLEDKSTTATPSSAPEIDEIHESNPSSSQIVEETVEEKPEEHTTTVLIKDDPAYSKYFKMLKLGVLEAGVIQKMKSEGVDPSILKRGDEPSRPQAQTSRNYESSGESTASFSDSD,not soluble
